Test [1] relates to ERα-mediated transcription (ERE-tk-Luc). Briefly: ERE-tk-Luc reporter assay in MCF-7/CsiRNA and MCF-7/MUC1siRNA-A cells. The format is cell-based, human. The settings on record: MCF-7/CsiRNA versus MCF-7/MUC1siRNA-A cells, 100 nM E2 for 24 h.
The subject of another test is ERα. Briefly: Immunoblot of ERα levels in MCF-7 and ZR-75-1 cells. The test is classed as cell-based, human. The settings on record: MG132 5 mM for 24 h. Here is the method: FIGS. 5A-D. MUC1 stabilizes ERα. FIG. 5A. Lysates from the indicated MCF-7 (left) and ZR-75-1 (right) cells were immunoblotted with anti-ERa, anti-MUC1-C and anti-β-actin. WT: wild-type cells. FIGS. 5B and C. The indicated MCF-7 (left) and ZR-75-1 (right) cells were treated with 5 mM MG132 for 24 h. Lysates were subjected to immunoblotting with the indicated antibodies FIG. 5B. […] Lysates were immunoprecipitated with anti-ERα and the precipitates were analyzed by SDS-PAGE and autoradiography. A higher amount of MCF-7/MUC1siRNA cell lysate was used for immunoprecipitation to increase the ERα signals. Lysates not subjected to immunoprecipitation were immunoblotted with anti-β-actin. Intensity of the signals as determined by densitometric scanning is presented as the percentage of ERα remaining over time relative to control at 0 h.
Coimmunoprecipitation and immunoblotting.
(In general: In western blotting, separated proteins are transferred to a membrane and probed.)

The subject of a further test is breast cancer cells. Briefly: Induction of apoptosis in breast cancer cells. The settings on record: both cell types (MCF-7, ZR-75-1); data not shown. The test is classed as cell-based, human.
Another test concerns breast cancer. The settings on record: patients with high ER and PgR expression levels; cited from earlier work.
Test [2] deals with T1, proliferating cell nuclear antigen (PCNA) (human, UniProt P12004 1-261).
T1 construct: Precipitated from lysates with anti-PCNA as a control
The test is described as follows: coimmunoprecipitation: anti-PCNA precipitates of cell lysates, immunoblot with anti-MUC1-C.

Test [3] addresses T2, estrogen receptor α (ERα), expressed in cells (human, UniProt P03372 1-595).
T2 sequence: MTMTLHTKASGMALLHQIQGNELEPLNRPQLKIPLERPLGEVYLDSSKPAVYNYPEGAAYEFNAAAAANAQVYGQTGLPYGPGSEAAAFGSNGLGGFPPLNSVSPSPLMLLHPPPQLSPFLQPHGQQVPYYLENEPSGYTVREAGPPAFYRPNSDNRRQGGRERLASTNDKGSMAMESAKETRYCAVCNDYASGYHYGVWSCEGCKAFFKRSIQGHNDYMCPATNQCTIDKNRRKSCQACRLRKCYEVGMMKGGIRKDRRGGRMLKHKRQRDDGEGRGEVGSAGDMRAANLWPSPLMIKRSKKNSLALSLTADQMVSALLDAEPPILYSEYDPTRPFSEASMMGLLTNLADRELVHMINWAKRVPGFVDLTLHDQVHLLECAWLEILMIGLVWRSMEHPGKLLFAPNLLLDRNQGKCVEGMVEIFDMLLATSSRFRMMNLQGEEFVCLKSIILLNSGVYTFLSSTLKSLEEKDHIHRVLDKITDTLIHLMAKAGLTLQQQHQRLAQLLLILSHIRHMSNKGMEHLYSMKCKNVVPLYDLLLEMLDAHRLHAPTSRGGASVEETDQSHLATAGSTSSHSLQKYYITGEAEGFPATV
Briefly: cell-based or functional assay.

In test [4] the target is T3, 35S-labeled full-length ERα(1-595) (Homo sapiens (Human), UniProt P03372 1-595, 35S-labeled in in vitro transcription/translation (TNT) reactions).
T3 construct: In vitro translated from pcDNA3.1-ERα; also called 35S-labeled ERα
T3 sequence: T2 sequence
The test is described as follows: GST pull-down on glutathione beads, 35S-labeled full-length ERα, phosphoimaging. As for the experimental part: To localize the region within MUC1-CD that interacts with ERα, ³⁵S-labeled full length ERα was incubated with deletion mutants of MUC1-CD.

Test [5] has as its target T4, 35S-labeled ERα(Δ186-281) (Homo sapiens (Human), UniProt P03372 1-595, 35S-labeled in in vitro transcription/translation (TNT) reactions).
T4 construct: Internal deletion of residues 186-281, devoid of the DBD
T4 sequence: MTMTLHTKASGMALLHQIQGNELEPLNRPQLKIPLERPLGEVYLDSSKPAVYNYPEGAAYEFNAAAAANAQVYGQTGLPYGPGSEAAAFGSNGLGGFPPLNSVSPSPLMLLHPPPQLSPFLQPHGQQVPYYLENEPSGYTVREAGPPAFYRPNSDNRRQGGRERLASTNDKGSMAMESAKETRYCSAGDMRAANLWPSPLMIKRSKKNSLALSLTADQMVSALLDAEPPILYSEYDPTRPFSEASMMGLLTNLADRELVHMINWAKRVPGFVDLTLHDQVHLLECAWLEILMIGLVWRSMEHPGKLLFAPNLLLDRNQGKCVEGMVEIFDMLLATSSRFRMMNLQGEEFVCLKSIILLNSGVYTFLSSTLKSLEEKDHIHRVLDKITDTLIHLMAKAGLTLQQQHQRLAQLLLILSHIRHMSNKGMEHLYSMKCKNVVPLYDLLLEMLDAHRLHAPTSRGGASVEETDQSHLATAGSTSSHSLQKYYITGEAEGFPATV
The test is described as follows: GST pull-down on glutathione beads, 35S-labeled ERα deletion mutant, phosphoimaging.

The target of another test is T5, 35S-labeled ERα(1-185) (Homo sapiens (Human), UniProt P03372 1-185, 35S-labeled in in vitro transcription/translation (TNT) reactions).
T5 construct: Deletion mutant that contains the AF1 domain
T5 sequence: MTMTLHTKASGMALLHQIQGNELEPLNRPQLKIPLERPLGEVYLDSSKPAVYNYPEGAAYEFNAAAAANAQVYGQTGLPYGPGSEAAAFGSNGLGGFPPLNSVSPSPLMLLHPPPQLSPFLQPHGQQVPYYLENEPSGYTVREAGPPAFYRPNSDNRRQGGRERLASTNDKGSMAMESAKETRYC
The description is as above.

The target of the next test is T6, 35S-labeled ERα(282-595) (Homo sapiens (Human), UniProt P03372 282-595, 35S-labeled in in vitro transcription/translation (TNT) reactions).
T6 sequence: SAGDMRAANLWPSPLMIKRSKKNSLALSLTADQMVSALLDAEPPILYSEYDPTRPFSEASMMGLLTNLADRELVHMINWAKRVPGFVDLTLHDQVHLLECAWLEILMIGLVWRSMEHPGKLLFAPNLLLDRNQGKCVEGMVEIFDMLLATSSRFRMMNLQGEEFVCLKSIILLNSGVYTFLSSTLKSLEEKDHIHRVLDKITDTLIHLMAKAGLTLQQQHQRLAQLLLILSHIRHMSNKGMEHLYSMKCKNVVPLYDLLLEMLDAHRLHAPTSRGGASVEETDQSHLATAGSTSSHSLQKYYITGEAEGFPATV
The test is described as above.

Consider seven molecules from US20080311575A1, “Modulation of Muci-Dependent Anti-Estrogen Resistance” (priority 2005, published 2008).

Residues, ends and D or L forms follow the SMILES beside them. *: point of attachment. Cbz = O=C(OCc1ccccc1)*

T1 sequence (P12004 whole entry): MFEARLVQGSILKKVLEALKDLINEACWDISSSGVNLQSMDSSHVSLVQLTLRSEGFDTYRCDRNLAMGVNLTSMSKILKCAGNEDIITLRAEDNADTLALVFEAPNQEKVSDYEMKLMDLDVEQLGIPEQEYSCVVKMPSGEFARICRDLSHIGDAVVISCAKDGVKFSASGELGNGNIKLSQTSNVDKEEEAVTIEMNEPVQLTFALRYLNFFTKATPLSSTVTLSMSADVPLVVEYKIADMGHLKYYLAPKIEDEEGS

`C[C@]12CC[C@@H]3c4ccc(O)cc4CC[C@H]3[C@@H]1CC[C@@H]2O` [E2, 17β-estradiol]: the “MUC1-dependent activation of ERE-tk-Luc” value in test [1] is reported as roughly 5 fold.

Regarding `C[C@]12CC[C@@H]3c4ccc(O)cc4C[C@@H](CCCCCCCCC[S+]([O-])CCCC(F)(F)C(F)(F)F)[C@H]3[C@@H]1CC[C@@H]2O` (some centres unmarked) [ICI, ICI 182,780], the “effect on ERα expression (immunoblot)” value with ERα was “down-regulation of ERα”.

In the case of `CC(C)C[C@@H](C=O)NC(=O)[C@H](CC(C)C)NC(=O)[C@H](CC(C)C)NC(=O)OCc1ccccc1` [MG132] (Cbz-Leu-Leu-Leu-aldehyde), the “effect on ERα expression (immunoblot)” value in the test on ERα was “increases in ERα expression”.

In the test with breast cancer cells, `CC/C(=C(\c1ccccc1)c1ccc(OCCN(C)C)cc1)c1ccccc1` [TAM, tamoxifen] had an induction of apoptosis of no more than 10%. The overall response rate with breast cancer is given as no more than 70%.

B1: MUC1 C-terminal subunit (MUC1-C) (other)
chain: SVVVQLTLAFREGTINVHDVETQFNQYKTEAASRYNLTISDVSVSDVPFPFSAQSGAGVPGWGIALLVLVCVLVALAIVYLIALAVCQCRRKNYGQLDIFPARDTYHPMSEYPTYHTHGRYVPPSSTDRSPYEKVSAGNGGSSLSYTNPAVAATSANL
notes: Endogenous ~20-25 kDa MUC1-C in lysates of human breast cancer cells
For the molecule B1, the binding result in test [2] is given as “no binding”. Further, the “MUC1-dependent activation of ERE-tk-Luc (luciferase reporter, MCF-7/CsiRNA against MCF-7/MUC1siRNA-A cells stimulated with E2)” value in [3] is roughly 5 fold.

B2: GST-MUC1-CD with deletion of amino acids 9 to 46 (other, not shown: a dimerising Fc or GST; large carriers; small tags and cut ends)
chain: CQCRRKNYEKVSAGNGGSSLSYTNPAVAATSANL
notes: also called MUC1-CD deletion mutant (amino acids 9 to 46 deleted)
B2: the binding result in [4] is reported as “no binding”.

B3: GST-MUC1-CD(1-72) (other, not shown: a dimerising Fc or GST)
chain: CQCRRKNYGQLDIFPARDTYHPMSEYPTYHTHGRYVPPSSTDRSPYEKVSAGNGGSSLSYTNPAVAATSANL
notes: also called full-length MUC1-CD
Take B3: the binding result (in test [5]; in the test with 35S-labeled ERα(1-185); in the test with 35S-labeled ERα(282-595)) was “no binding” in each case.
